Experiment [1] deals with T1, SARS-CoV spike [change] receptor binding domain (SARS-[change]), residues 325-533, Strep-tagged (SARS-CoV, UniProt P59594 325-533). Briefly: ELISA, serial dilution of supernatant after transfection.
Experiment [2] deals with T2, SARS-CoV-2 spike S1B receptor binding domain (SARS2-S1B), residues 329-538, Strep-tagged (SARS-CoV-2 (strain Wuhan-Hu-1), UniProt P0DTC2 329-538). The experiment is described as above.
In experiment [3] the target is T1, SARS-CoV spike [change] receptor …. In words: ELISA, antigen coated at equimolar amounts, mAb titrated.
For experiment [4], the target named is T3, SARS-CoV-2 spike ectodomain (SARS2-Secto), residues 1-1,213, with C-terminal trimerization motif and Strep-tag (SARS-CoV-2 (strain Wuhan-Hu-1), UniProt P0DTC2 14-1213). The description is as above.
The target in experiment [5] is SARS-S with 28-a.a. cytoplasmic tail truncation, on pseudotyped VSV particles (SARS-CoV, UniProt P59594 14-1227). Briefly: cell-based or functional assay.
Experiment [6] addresses SARS2-S with 18-a.a. cytoplasmic tail truncation, on pseudotyped VSV particles (SARS-CoV-2, UniProt P0DTC2 14-1255). In words: cell-based or functional assay.
The target of experiment [7] is WIV16-S with 19-a.a. cytoplasmic tail truncation, on pseudotyped VSV particles (bat SARS-like coronavirus WIV16). Briefly: cell-based or functional assay.
For experiment [8], the target named is T2, SARS-CoV-2 spike S1B receptor binding …. In words: ELISA, antigen coated at equimolar amounts, mAb titrated; ELISA EC50, not BLI.
In experiment [9] the target is T1, SARS-CoV spike [change] receptor ….
Experiment [10] deals with T2, SARS-CoV-2 spike S1B receptor binding ….
The target of experiment [11] is T3, SARS-CoV-2 spike ectodomain ….
In experiment [12] the target is T1, SARS-CoV spike [change] receptor …. The source holds these as a separate data set.
Experiment [13] has as its target T2, SARS-CoV-2 spike S1B receptor binding …. The source holds these as a separate data set.
The target of experiment [14] is T1, SARS-CoV spike [change] receptor …. This is another data set of the same source.
Experiment [15] deals with T2, SARS-CoV-2 spike S1B receptor binding …. This is another data set of the same source.
Experiment [16] concerns the target T3, SARS-CoV-2 spike ectodomain …. The source holds these as a separate data set.

B1: 49F1 VH41 VL42-4 (antibody, V domains shown)
VH: QVQLVQSGAEVKKPGSSVKVSCKASGGTFSSYAINWVRQAPGQGLEWMGGIIPIFGTANSAQKFQGRVTITADKSTSTAYMELSSLRSEDTAVYYCAREAGIPVAGLADWGQGTLVTVSS
VL: DIQMTQSPSTLSASVGDRVTITCRASQSISSYLNWYQQKPGKAPKLLIYKASSLESGVPSRFSGSGSGTEFTLTISSLQPDDFGTYYCQQYNSYYTFGQGTKLEIK
For the molecule B1, the binding result in experiment [1] and in experiment [2] was “no binding (tested: undiluted supernatant)” in each case.

B2: 47D11 fully human IgG1 monoclonal antibody (antibody, V domains shown)
VH: QVQLQESGPGLVKPSETLSLTCSVSGGSISSHYWSWIRQPPGKGLEWIGYIYYSGSTNHNPSLKSRVTISVDTSKNQFSLKLSSVTAADTAVYYCARGVLLWFGEPIFEIWGQGTMVTVSS
VL: EIVMTQSPATLSVSPGERATLSCRASQSVSSSLAWYQQKPGQAPRLLIYGASTRAPGIPARFSGSGSGTEFTLTISSLQSEDFAVYYCQQYNNWPLTFGGGTKVEIKR
Consider B2, for which the EC50 in experiment [3] turned out to be 0.02 µg/mL; in experiment [4] it was 0.15 µg/mL; in experiment [8], 0.03 µg/mL. Also, in [5], the “IC50, infection of VeroE6 cells with SARS-S pseudotyped VSV (luciferase)” value turned out to be 0.06 µg/mL. Further, in experiment [6], the “IC50, infection of VeroE6 cells with SARS2-S pseudotyped VSV (luciferase)” value came out at 0.08 µg/mL. Further, the “IC50, neutralization of WIV16-S pseudotyped VSV” value in experiment [7] worked out at 0.165 µg/mL. The Kd in experiment [9] came out at 16.1 nM; in experiment [10] it was 9.6 nM; in experiment [11] it was 10.8 nM. The “EC50 (read off the curve)” value in [12] and in [13] was around 0.1 µg/mL throughout. The koff came out at 0.00021 s⁻¹ in experiment [14], 0.000137 s⁻¹ in experiment [15] and 9.85e-05 s⁻¹ in experiment [16]. The kon is 20000 M⁻¹ s⁻¹ in experiment [14], 15100 M⁻¹ s⁻¹ in experiment [15] and 9770 M⁻¹ s⁻¹ in [16].

Source of the values: patent US20210340225A1 (HARBOUR ANTIBODIES, published 2021).
